# According to patent US12624075B2, “Immune inducer” (TORAY INDUSTRIES, INC., priority 2015, dated 2026):
# B1: full-length PDS5A protein: human PDS5A protein of 1337 amino acid residues, prepared according to Example 5 in WO 2011/027807; Comparative Example (protein, listed as Homo sapiens)
# chain: MDFTAQPKPATALCGVVSADGKIAYPPGVKEITDKITTDEMIKRLKMVVKTFMDMDQDSEDEKQQYLPLALHLASEFFLRNPNKDVRLLVACCLADIFRIYAPEAPYTSHDKLKDIFLFITRQLKGLEDTKSPQFNRYFYLLENLAWVKSYNICFELEDCNEIFIQLFRTLFSVINNSHNKKVQMHMLDLMSSIIMEGDGVTQELLDSILINLIPAHKNLNKQSFDLAKVLLKRTVQTIEACIANFFNQVLVLGRSSVSDLSEHVFDLIQELFAIDPHLLLSVMPQLEFKLKSNDGEERLAVVRLLAKLFGSKDSDLATQNRPLWQCFLGRFNDIHVPVRLESVKFASHCLMNHPDLAKDLTEYLKVRSHDPEEAIRHDVIVTIITAAKRDLALVNDQLLGFVRERTLDKRWRVRKEAMMGLAQLYKKYCLHGEAGKEAAEKVSWIKDKLLHIYYQNSIDDKLLVEKIFAQYLVPHNLETEERMKCLYYLYASLDPNAVKALNEMWKCQNMLRSHVRELLDLHKQPTSEANCSAMFGKLMTIAKNLPDPGKAQDFVKKFNQVLGDDEKLRSQLELLISPTCSCKQADICVREIARKLANPKQPTNPFLEMVKFLLERIAPVHIDSEAISALVKLMNKSIEGTADDEEEGVSPDTAIRSGLELLKVLSFTHPTSFHSAETYESLLQCLRMEDDKVAEAAIQIFRNTGHKIETDLPQIRSTLIPILHQKAKRGTPHQAKQAVHCIHAIFTNKEVQLAQIFEPLSRSLNADVPEQLITPLVSLGHISMLAPDQFASPMKSVVANFIVKDLLMNDRSTGEKNGKLWSPDEEVSPEVLAKVQAIKLLVRWLLGMKNNQSKSANSTLRLLSAMLVSEGDLTEQKRISKSDMSRLRLAAGSAIMKLAQEPCYHEIITPEQFQLCALVINDECYQVRQIFAQKLHKALVKLLLPLEYMAIFALCAKDPVKERRAHARQCLLKNISIRREYIKQNPMATEKLLSLLPEYVVPYMIHLLAHDPDFTRSQDVDQLRDIKECLWFMLEVLMTKNENNSHAFMKKMAENIKLTRDAQSPDESKTNEKLYTVCDVALCVINSKSALCNADSPKDPVLPMKFFTQPEKDFCNDKSYISEETRVLLLTGKPKPAGVLGAVNKPLSATGRKPYVRSTGTETGSNINVNSELNPSTGNRSREQSSEAAETGVSENEENPVRIISVTPVKNIDPVKNKEINSDQATQGNISSDRGKKRTVTAAGAENIQQKTDEKVDESGPPAPSKPRRGRRPKSESQGNATKNDDLNKPINKGRKRAAVGQESPGGLEAGNAKAPKLQDLAKKAAPAERQIDLQR
# Tests used:
# [1] = system: U251 cells; assay: Cytotoxicity assay (chromium 51 release) of induced HLA-A0201-positive CD8-positive T cells against U251 cells; type: cell-based, human; conditions: 5×10^4 T cells with 1×10^3 U251 cells, 4 hours; FIG. 4A; higher/lower = SEQ ID NOs: 3 to 19 versus SEQ ID NOs: 75 to 83 and full-length PDS5A protein
# Source text: Subsequently, the following were examined: whether or not the polypeptides having the amino acid sequences represented by SEQ ID NOs: 3 to 19, which are used in the present invention, are presented on the HLA-A0201 molecules on tumor cells which are HLA-A0201-positive and which express human PDS5A protein; whether or not the CD8-positive T cells stimulated with the polypeptides according to the present invention can damage the tumor cells which are HLA-A0201-positive and which express the human PDS5A protein; and further, whether or not the above described CD8-positive T cells have a markedly higher ability to damage the tumor cells as compared to the CD8-positive T cells stimulated with the known peptides (SEQ ID NOs: 75 to 83) and those stimulated with the PDS5A protein.
# Each of the total 10 types of cell lines whose expression of human PDS5A protein has been confirmed, namely: a human glioma (malignant brain tumor) cell line U251 cells; a leukemia cell line Jurkat cells; a liver cancer cell line SK-Hep1; a breast cancer cell line MCF7; a pancreatic cancer cell line Panc1; an ovarian cancer cell line OVCAR3; a renal cancer cell line A498; a colorectal cancer cell line HCT116; a stomach cancer cell line KATO3; and a lung cancer cell line NCI-H522 (purchased from ATCC); were collected into a 50 mL centrifugal tube, in an amount of 1×10^6 cells each. […]
# [2] = system: 14 types of cancer cells; assay: Direct exposure of cancer cells to the polypeptides (direct killing); type: cell-based, human; conditions: cancer cells exposed to the polypeptides or protein without T cells
molecule,measurement,setting,value
B1,cytotoxic activity,[1],markedly lower cytotoxic activity
same,activity to directly kill the cancer cells,[2],no cancer cells were killed at all
